Target: T1, 抗原K27-3Ub (化学合成的K27连接泛素链蛋白) (UniProt P0CG48 1-76, ubiquitin units joined through K27 linkages (K27 of one ubiquitin to the C-terminus of the next); biotinylated (biotin-K27-3Ub) in the ELISA)
T1 construct: Chemically synthesised K27-linked tri-ubiquitin provided by the Liu Lei group, Tsinghua University; also called biotin-K27-3Ub; K27泛素链
Assay: SPR, Biacore 8K, antibody captured on Protein A chip, K27-3Ub as analyte, 1:1 fit

- Kd: 3.66 nM
- koff: 0.00234 s⁻¹
B1: 全长抗体蛋白IgG.zl1901 (antibody, V domains shown)
VH: EVQLVESGAEVKKPGASVKVSCKASGYTFTSYYMHWVRQAPGQGLEWMGIINPSGGSTSYAQKFQGRVTMTRDTSTSTVYMELSSLRSEDTAVYYCARGLRAELLHYYYGMDVWGQGTTVTVSS
VL: not shown
notes: also called 全长抗体IgG.zl1901
